Measured values: patent US6350731
Where no end group is shown, it is not given here.

Tests used:
Rb 109 = assay: competitive ELISA on antiserum Rb 109; coated antigen not given
Rb 112 = assay: competitive ELISA on antiserum Rb 112; coated antigen not given
13 DB-1 = assay: CELIA on monoclonal 13 DB-1; coated antigen not given
2 DMB = assay: CELIA on monoclonal 2 DMB; coated antigen not given
21 DB-1 = assay: CELIA on monoclonal 21 DB-1; coated antigen not given
9 DB-1 = assay: CELIA on monoclonal 9 DB-1; coated antigen not given
Rb 39 = assay: competitive ELISA on antiserum Rb 39; coated antigen not given
17 DB-1 = assay: CELIA on monoclonal 17 DB-1; coated antigen not given
Rb 38 = assay: competitive ELISA on antiserum Rb 38; coated antigen not given
4 DMB = assay: CELIA on monoclonal 4 DMB; coated antigen not given
22 DB-1 = assay: CELIA on monoclonal 22 DB-1; coated antigen not given
Rb 37 = assay: competitive ELISA on antiserum Rb 37; coated antigen not given
Rb 65 = assay: competitive ELISA on antiserum Rb 65; coated antigen not given
Rb 66 = assay: competitive ELISA on antiserum Rb 66; coated antigen not given
19 DB-1 = assay: CELIA on monoclonal 19 DB-1; coated antigen not given
10 DB-1 = assay: CELIA on monoclonal 10 DB-1; coated antigen not given
12 DB-1 = assay: CELIA on monoclonal 12 DB-1; coated antigen not given
Rb 67 = assay: competitive ELISA on antiserum Rb 67; coated antigen not given
Rb 68 = assay: competitive ELISA on antiserum Rb 68; coated antigen not given
Rb 78 = assay: competitive ELISA on antiserum Rb 78; coated antigen not given

| Binder | IC50 (Rb 109) [nM] | IC50 (Rb 112) [nM] | IC50 (13 DB-1) [nM] | IC50 (2 DMB) [nM] | IC50 (21 DB-1) [nM] | IC50 (9 DB-1) [nM] | IC50 (Rb 39) [nM] | IC50 (17 DB-1) [nM] | IC50 (Rb 38) [nM] | IC50 (4 DMB) [nM] | IC50 (22 DB-1) [nM] | IC50 (Rb 37) [nM] | IC50 (Rb 65) [nM] | IC50 (Rb 66) [nM] | IC50 (19 DB-1) [nM] | IC50 (10 DB-1) [nM] | IC50 (12 DB-1) [nM] | IC50 (Rb 67) [nM] | IC50 (Rb 68) [nM] | IC50 (Rb 78) [nM] |
| --- | --- | --- | --- | --- | --- | --- | --- | --- | --- | --- | --- | --- | --- | --- | --- | --- | --- | --- | --- | --- |
| Ac-ISRRLIDRTNANFLC (not fully specified; printed as Ac-25I-S-R-R-L-I-D-R-T-N-A-N-F-L38-C) [GP4] | 2 | 2 | 200 | 2000 | 18 | 1000 | 2 | 180 | 150 | 150 | 20 | 20 | 3 | < 2 | 18 | 400 | 2000 |  |  |  |
| RKIEIVRKKPIFKKATV [GP21a] |  |  |  |  |  |  |  |  |  |  |  |  |  |  |  |  |  |  |  | 100 |

Further lines, results first:

| IC50 (Rb 109) [nM] | IC50 (Rb 112) [nM] | IC50 (13 DB-1) [nM] | IC50 (2 DMB) [nM] | IC50 (21 DB-1) [nM] | IC50 (9 DB-1) [nM] | IC50 (Rb 39) [nM] | IC50 (17 DB-1) [nM] | IC50 (Rb 38) [nM] | IC50 (4 DMB) [nM] | IC50 (22 DB-1) [nM] | IC50 (Rb 37) [nM] | IC50 (Rb 65) [nM] | IC50 (Rb 66) [nM] | IC50 (19 DB-1) [nM] | IC50 (10 DB-1) [nM] | IC50 (12 DB-1) [nM] | IC50 (Rb 67) [nM] | IC50 (Rb 68) [nM] | IC50 (Rb 78) [nM] | Binder |
| --- | --- | --- | --- | --- | --- | --- | --- | --- | --- | --- | --- | --- | --- | --- | --- | --- | --- | --- | --- | --- |
| 4 | 3 | 400 | 2000 | 30 | 1200 | 2 | 3000 | 74 | 150 | 25 | 10 | 3 | < 2 | 18 |  |  |  |  |  | Ac-ISRRLIDRTNANFLVWPPC [GP10] |
|  |  |  |  |  |  |  |  |  |  |  |  |  |  |  |  |  | 2 | < 2 |  | Ac-RKIEIVRKKC [GP8] |
